According to the supplement of paper PMC12636428:

System: Saccharomyces cerevisiae
Test: transcriptional activation domain activity (GFP:mCherry ratio, weighted mean of sorted bins, harmonized to initial dataset scale) (arbitrary fluorescence ratio units); higher = stronger transcriptional activation
Conditions: beta-estradiol 1 µM; induction time 4 h
Summary of the method: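 Barcoded tiles were sequenced after cells were sorted into 8 bins by GFP:mCherry ratio. Before sorting, cultures had been diluted 1:5 into SC with 1 uM beta-estradiol and held for 4 hours at 30 °C. The tiles were fused to an estradiol-inducible synthetic transcription factor and integrated at URA3 in yeast diploids carrying a GFP reporter. Activation activity is the read-weighted mean of bin median fluorescence, averaged over barcodes and linearly mapped onto the initial dataset scale, and tiles under 50 reads were left out.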

Sequence	transcriptional activation domain activity
TLKGIVLRNPVTLRLEEEEDDAANLTQYFVKCSEVDKFLLIQVMIKMRMIKGK	46700
HIFYTQLYPAYDLPKKLQEDTELETEQENQMLNQVGNINYTHDFSLSHEIDDL	57800
EEAEKVPEKKPKAEEKAAEDGESSNPVHKCWNCGRTKSAVWRTKVMEDGKAVR	33200
FYWIPIFRAVGKYKYSNLLNKFLLDLHLRYPKKLQNAIRSNWLCNPSGKKNKF	64100
GVLRLFQICLPCFAAVDFVQGFVRYLYHIPNFNGVYETKMWVWVGLIICLIFK	53900
LYHALRLCLKFFVVSLVADPEFQRELDYFMKNKPWFIRWPAVFSLNMVWNYTK	42600
NKEKMAAFGSFVTEDQEKMEVSFNIFNEITIQDLNFLQFSSIPKLWENKTLEP	79600
SYITYYQSRQFVMIPWYFYFIIITCVLTIIFVMAVCFLFYIHLLLPILVMLWS	35400
EFVQVAAKPVAKKEESSDEDSDDESEDEKPAAKKAAAPVKVCSGFPYANIALI	32200
IFRVTLLLVYFWTSSIIIGVTQYIGTPLYLISKDHYYRFMAFTKQCMTLLVLS	65400
EAEEGGAGKRKAGSPEDTEQQQESSEKSTESNHKPATKRSTVSERPSKGKRRS	11500
RNEGEARKGEGGRMRVVGIRQRAEGKTRRRGRKRERGREGSERRGEGGGREQG	< 6570
LCIGIVLIAAFIAYEYLMVSGRVLARHLPHQKSMLPWELITNKDLGLLFYVNF	44400
MHTSRAAWIHSKPADKAEAVAPHPHIAESGVGHSSHVGTHPKLSGDPNSPWRE	45900
IAIQVMNRVLFFKAFKNVTRYSCAYKLCLVFFFFYIVINGKNFYVIEYAHLSM	49300
EGGRQRERAGGAGGEDSKGEGRREERREEGKGGKGSAEERESREGSARGGEAG	10200
SLDLEILEELEKLISAQEFSRNFTEDVDESLQSEIDLMNYDNEALNQLMAIDL	137000
STTKSICYVLRHLMITYVFYLSATGIDDLTVLIGNHSHNMIRTIVRSALWISY	39900
MIKRLRWRRKIERNLPEFRLIPFLQRLLWLLLLLQFLLHLLHPPILCLHRLRY	50700
PQPAAGKRKRGRPRTSLPESEPRSEDRRSNTPSAAPQQSAKKSRGRPPKAASK	38800
EAAHVNGLGIADLDVLLGLNGRSSDVDMTTTLPSLKPPLQNGEIKADSIDNLD	53300

Sequence	transcriptional activation domain activity
RTTALGVWFLSIQFFWYALYGALYIWFFFMPWEKLSVLLAFDYFMRLLLCFMF	45700
APPPPPPPPPPAPPARSGAPPPPPPPPPPPMGGAPPPPPPPMGGPPPPPPPPP	36400
GEDEEEGEEEEEEDDDDEEEKDHDEDEGDQGDGASDDADAAAQERPGKPRPGR	8020
MFCLRSWLPLLFIPTSASPVFIFLFFVCTYFLNRPCVYCSFLLLILFLTSCNW	30800
RHRRHRRSRSRDREGGRDRGRDGRRDERREERKVERRNEGRDEGRVEGRGRDA	40000
VPGEVTEAEANGEAPKAEDGAEDGEAAKPKKKKKSKAARKAKKAAAASTEDGA	21600
IIFVELYSYLLYYIYLNIRIFLRFSSSIVLDFELFCFPPSHFPFNFFVCILFT	74000
GERDIDVSSIEDVVKRECKKRVENEKLAQVGYAYDLAHSKAAAHLEAVKKLRK	32900
LRAYPVPQALQIAGNESVSPCLVRCLRLLTVLADLLYMHRGFFARALNDHPKD	46700
LIVSWSGNYVVQHHSTRINLIDFMDSNYISHLCVYLGFSIADVCYQLTMLWMI	77700
LQKTVNLKNIMKVSDPYVPTRNTFNYDVKISNDFFDNGDNLYGNDEEVLFYED	61500
MSRVRLAPEGHMFFFVLIVFIFCFFCLFLFLAGDLKGGWLFFLRFGMGWVFLG	21600
DHLLKSLYMLIHTTLKCIKNLEFLGFYLFNSGFSSVFDECVFPYIRTLRCHQP	65000
SLGCTLVYVAHISYLSLLPRFDYSYNMAFNLTLGLTHNFLWLLYSLPSFCAIP	52300
MREKDNDETTTGIFFLFLFLDKILLLFAWYLPWSSSQFLRLLFSLVLFWAVTL	45300
MVLLGSCTLLIGKTITPYILVHKTGILYPLLFFFFFSLSLSFFYFFIGTFPLG	52100
NLQKIISYLLPAGSWSEDWPIILNVFFGCPLPLSSFLMVIICCFTDLFCCLTL	47100
FFFSFFFFLFLFLFHLRFFPLTFVPFFIPCLLLLSSSLLLCCVVWYLFMRLFS	46700
MPAIFFGSQIGGETLQPLSYTGLPWKLLIQDILLFLRWCYYLPNIVIPLWPWP	67400
YGVHLLARFAWWFPSMSAIIAKLEGTINKLHILSHKELCQIIHNLNWLLYVGL	71400
MQIVLYLHCKVCFIYFHCLLLDFRSFLHIQRPQEPWIAYIFPTTACVSPQTRR	55300

Sequence	transcriptional activation domain activity
MYCMRYFVPLLLLPFPDSPPIFVILFLISFFLHQKPCIYCTLLLFALFSSTCF	57700
EPVEAEAQAEAEAETKEPETKSEETAAASTETEKVEDKREATTATEKAQAAAS	< 6570
QSPSISMEPVSINETGSAYTTTNTALNDIDIPFSINELNELYKQVSSHNSHSQ	84100
MAIDCLALHIPTCVNLWGHVLYVQLVTVMYPSHFFFSFYFIFIFILFLFFLFF	14300
SQKKHCELCKTAFRFTKLYSPDMPKHLPFHIFVHHMTRYLIRNFLVWLRAALV	61500
EVETRYTLAIELFQPILKVLVDFESDDLKFGFLVAWLVGLYRRLWELCVFKYI	58900
AKKAKQEATTEGGEEGSTGKTAKAKETPPTEQKEGGEKKAKATKARGKAGKEA	27300
DVGNSVWHVDCCSPYVNGGSGWGFFNAILGWTNSATYGSVISYNLYWLFVIAV	51100
EDGGEDGETGGKILTKAEKEKQKKEREKQRKKEQATPAKAAAEEKKVEAAPAA	32100
VTRHHEFLRVHLNEKGEKLLYITHRLDKNGFDVRVFLVAASGFLTDSYILFVT	39700
MLSLIWCFKAWLLTIISLPSYIILRTPLPFLFSSSPLFRSSPFHFFFTSLSTH	48100
SEDERPRGGLKGRKGKKRVEREETSGGSDESSDEEGKRGKAKAGGKREVRTRS	31900
DIPGLAPTYLDNQAFLMADTVDIPGDYNLFFDNFDISNFFLPATVYDSELPVS	137000
LLVANLTILDTFGLEESAIRIWNVCKPLGHLGQNALLILMLRLKDTMLIPWPL	72200
YLKELTRCAKLPYSTRAMKNLNNVAITCACTLLVSVPHFNFRGDLLKIIVAKV	39500
ALNWYFLGTTMYFLYGESVIYYFKHILLVDRIFLPLATHHRFISFMLYILGFV	66300
VANILCLSTSLLACSMVFWSIPSWYYLVSHYQEWMPHVILPLYLLWWLFMMLV	39200
GLKLSPSSSGLLSTNESNAIEQFLDNLISQDMMSSNASMNSESHLHIRSPKKQ	68400
GSTNRSGDGSSDDERRKSRRRGRRRKASVSSSSSGGSKSSSTTSRSRSRSRSR	7680
VYIFLTFFIATWWPLCLVNLFGWMLLYLFRGVFPEAIMLIFNVLSRVVTIHRI	42000
LLEELTQRLLQTDETPDSKVKDLSRFINMIILRFFATARRMAVFRALFNLLLH	50300

Sequence	transcriptional activation domain activity
GMPESTVEDVGGPSTATVEEGGPREVEATVQGVEEASTSAPVKRGRGRPRKTS	30800
FKSMIFFLWFLDTLQLAFVIHALYYYLITSYGNIVALMKPTWSILLQIYVTSL	69400
SSQTPVLLWIIHFILPNLCILLYFTLQLIYLLRHHKSKWLIGDLVHSYCFYFI	81000
MSGIFSLSHLLVFRFFFFSIMRFLLVFLYFLFLTITIPHSLSLSLHLFHLFVS	52600
LMLCAGHGILIALVEQSGIDIKPILVFCLITYTLCQIGMCYSCYLYDFILLFF	50100
MSWPDRGYYYCLMVISLLSAKLMHLFSHFTALPLILFLLYLPTFLLLDLLVVF	60500
ALVRCCLSKVVYVALEFISICTMPESAKGVINLIDNLSPYARKDLVHLRGWVC	51800
RDMLIDTYLTPENLYDVHGPGVPVKTLEIATALVDIVGQYDHNMKLEAWNVLH	50000
RRVGEVMCFQALLHFLGMLSFWYGVLRRLGFTLINFFLNRVVLLGLLAFICYE	69500
LCREVIIGGILGGILVFLVISLFFLIGHFFLFFVVLFLLLFNTTLCSLLVEVL	18900
SCLAVITWDVLNFLIVDCHIIFYRKFNWRVLVFIVARLSPYCFFLSLSISLTS	60900
MGSCNLPFGHISLARGTLVLIRGWSFFLASQPPYGFIRWILFRSSFYFLCSWR	55900
YFLAKMLLVWIVLALQTCEVSFSFVDTEHAYRGGVLRFVETLVKWAMEQNMSH	45400
HDLLVDSLRLVMELLKAPGGLSVHALTAHLNILSFTVRLLDLCLDMALETPHH	84900
EDEEETAAARSTSKRTRRGRVLDDSDEEDDEAGTVSPAKAATGAESEGEAGAA	30000
ADDVGKWGAGLPGSAAVGGAGGGEEEEGKEKKAGGGMAARVLISEVSIKLLVP	33800
VWVKTPWNLYALLLATLSHSLMIDPLLGVLLYYSSITWDPLYRILIFCIFAFW	45400
VSLRSLPYEVGFKQNFNLILNHDASLIKTTVRHLLVYCSLIKAIKLCLIFINK	52500
KILLNHNYFYFRMLCHHQTCNIYNLYHQIFLIFLQIIVSILLSLRIIALYLGN	66400
DGKWCLRFVPRGQRWLLAITRDFTDTAMMSVAARMVWHPIAYTVCLLPVTIAR	55000
